{"source": "paper PMC3969221", "about": "(2014)", "target": "Cry1AbMod protoxin (Bacillus thuringiensis, UniProt P0A370 1-1155)", "assay": "ELISA", "data": [{"binder": "Manduca sexta cadherin protein fragment (CR7–CR12) (domain or fragment) MIDFLTGQISVNTSGAIDADTPPRFHLYYTVVASDRCSTEDPADCPPDPTYWETEGNITIHITDTNNKVPQAETTKFDTVVYIYENATHLDEVVTLIASDLDRDEIYHTVSYVINYAVNPRLMNFFSVNRETGLVYVDYETQGSGEVLDRDGDEPTHRIFFNLIDNFMGEGEGNRNQNDTEVLVILLDVNDNAPELPPPSELSWTISENLKQGVRLEPHIFAPDRDEPDTDNSRVGYEILNLSTERDIEVPELFVMIQIANVTGELETAMDLKGYWGTYAIHIRAFDHGIPQMSMNETYELIIHPFNYYAPEFVFPTNDAVIRLARERAVINGVLATVNGEFLERISATDPDGLHAGVVTFQVVGDEESQRYFQVVNDGENLGSLRLLQAVPEEIREFRITIRATDQGTDPGPLSTDMTFRVVFVPTQGEPRFASSEHAVAFIEKSAGMEESHQLPLAQDIKNHLCEDDCHSIYYRIIDGNSEGHFGLDPVRNRLFLKKELIREQSASHTLQVAASNSPDGGIPLPASILTVTVTVREADPRPVFVRELYTAGISTADSIGRELLRLHATQSEGSAITYAIDYDTMVVDPSLEAVRQSAFVLNAQTGVLTLNIQPTATMHGLFKFEVTATDTAGAQDRTDVTVYVVSSQNRVYFVFVNTLQQVEDNRDFIA", "values": [{"measurement": "Kd", "value": 6.8, "unit": "nM"}]}]}
